According to the supplement of paper PMC9112550, “Optimization of the antimicrobial peptide Bac7 by deep mutational scanning” (BMC Biology, 2022):

Test system: Escherichia coli TOP10
Assay: shrunken log2 fold change of peptide-encoding DNA abundance (4.5 h post-induction vs induction); higher = less antimicrobial activity (less host growth inhibition)
Conditions: time post-induction: 4.5 h; library: site-saturation at positions 5, 18, 19, 20
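Also: peptides expressed intracellularly from a pBAD plasmid library in pooled LB shake-flask culture, induced with 0.3% L-arabinose, DNA abundance read by NGS, three biological replicates, DESeq2 with apeglm shrinkage.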

Sequence	shrunken log2 fold change
RRIRLRPPRLPRPRPRPCYSPRP	-0.142
RRIRTRPPRLPRPRPRPCGGPRP	0.169
RRIRPRPPRLPRPRPRPTAHPRP	0.231
RRIRKRPPRLPRPRPRPIFIPRP	-0.173
RRIRTRPPRLPRPRPRPCLFPRP	-0.16
RRIRIRPPRLPRPRPRPVHKPRP	-0.442
RRIRARPPRLPRPRPRPQCTPRP	-0.0222
RRIRSRPPRLPRPRPRPSDMPRP	-0.373
RRIRGRPPRLPRPRPRPTATPRP	3.4
RRIRPRPPRLPRPRPRPPHCPRP	0.388
RRIRCRPPRLPRPRPRPFDQPRP	-0.136
RRIRKRPPRLPRPRPRPEVMPRP	0.148
RRIRIRPPRLPRPRPRPYAQPRP	-0.121
RRIRDRPPRLPRPRPRPNWSPRP	-0.0955
RRIRGRPPRLPRPRPRPKTFPRP	0.292
RRIRRRPPRLPRPRPRPSCAPRP	0.452
RRIRKRPPRLPRPRPRPEHYPRP	0.0532
RRIRYRPPRLPRPRPRPSGMPRP	-0.0611
RRIRPRPPRLPRPRPRPKLTPRP	0.421
RRIRERPPRLPRPRPRPYVCPRP	-1.6
RRIRCRPPRLPRPRPRPHVNPRP	-0.497
RRIRGRPPRLPRPRPRPELNPRP	0.724
RRIRERPPRLPRPRPRPYREPRP	-0.00865
RRIRIRPPRLPRPRPRPKSEPRP	-0.329
RRIRIRPPRLPRPRPRPQATPRP	-0.24

Sequence	shrunken log2 fold change
RRIRERPPRLPRPRPRPNYGPRP	-0.0315
RRIRCRPPRLPRPRPRPHTEPRP	-0.273
RRIRIRPPRLPRPRPRPGHQPRP	-0.00431
RRIRVRPPRLPRPRPRPTVLPRP	-0.0891
RRIRMRPPRLPRPRPRPFCSPRP	0.0534
RRIRTRPPRLPRPRPRPWRTPRP	0.112
RRIRKRPPRLPRPRPRPTYKPRP	-0.198
RRIRDRPPRLPRPRPRPHGFPRP	-0.00776
RRIRMRPPRLPRPRPRPGIIPRP	-0.0597
RRIRERPPRLPRPRPRPHLYPRP	-0.858
RRIRARPPRLPRPRPRPMGWPRP	0.468
RRIRFRPPRLPRPRPRPMKLPRP	-0.0666
RRIRGRPPRLPRPRPRPWMMPRP	-0.0114
RRIRARPPRLPRPRPRPWYKPRP	-0.229
RRIRSRPPRLPRPRPRPVIGPRP	0.0912
RRIRDRPPRLPRPRPRPQYGPRP	-0.414
RRIRKRPPRLPRPRPRPPDWPRP	1.48
RRIRVRPPRLPRPRPRPQLFPRP	0.229
RRIRCRPPRLPRPRPRPKSCPRP	0.0733
RRIRYRPPRLPRPRPRPERGPRP	-0.0437
RRIRWRPPRLPRPRPRPMIKPRP	-0.353
RRIRGRPPRLPRPRPRPENNPRP	0.502
RRIRPRPPRLPRPRPRPYNIPRP	-1.66
RRIRNRPPRLPRPRPRPTGLPRP	0.0817
RRIRCRPPRLPRPRPRPAIHPRP	-0.248

Sequence	shrunken log2 fold change
RRIRQRPPRLPRPRPRPMYIPRP	-0.0435
RRIRWRPPRLPRPRPRPSVGPRP	0.149
RRIRRRPPRLPRPRPRPYDRPRP	-0.164
RRIRCRPPRLPRPRPRPQIYPRP	-0.579
RRIRYRPPRLPRPRPRPKNVPRP	0.0242
RRIRRRPPRLPRPRPRPHCMPRP	-0.329
RRIRDRPPRLPRPRPRPPNAPRP	0.617
RRIRPRPPRLPRPRPRPFYYPRP	-0.838
RRIRVRPPRLPRPRPRPILIPRP	-0.413
RRIRHRPPRLPRPRPRPATQPRP	-0.038
RRIRERPPRLPRPRPRPCEMPRP	0.118
RRIRFRPPRLPRPRPRPHVYPRP	-0.0438
RRIRLRPPRLPRPRPRPIMIPRP	-0.286
RRIRDRPPRLPRPRPRPNQLPRP	-0.0966
RRIRPRPPRLPRPRPRPNGKPRP	-0.257
RRIRLRPPRLPRPRPRPGAEPRP	0.505
RRIRLRPPRLPRPRPRPGCCPRP	0.387
RRIRWRPPRLPRPRPRPYQDPRP	-0.411
RRIRRRPPRLPRPRPRPLLSPRP	0.148
RRIRFRPPRLPRPRPRPRDQPRP	0.0987
RRIRYRPPRLPRPRPRPSDPPRP	-0.374
RRIRCRPPRLPRPRPRPKTWPRP	0.0688
RRIRDRPPRLPRPRPRPNYWPRP	-0.218
RRIRLRPPRLPRPRPRPLFWPRP	0.12
RRIRWRPPRLPRPRPRPPEYPRP	0.539

Sequence	shrunken log2 fold change
RRIRWRPPRLPRPRPRPKLWPRP	1.06
RRIRPRPPRLPRPRPRPVYPPRP	3.41
RRIRMRPPRLPRPRPRPSQSPRP	0.53
RRIRYRPPRLPRPRPRPGENPRP	0.00408
RRIRGRPPRLPRPRPRPSWCPRP	0.013
RRIRWRPPRLPRPRPRPKPHPRP	0.351
RRIRCRPPRLPRPRPRPEFFPRP	-0.127
RRIRWRPPRLPRPRPRPDKLPRP	0.161
RRIRSRPPRLPRPRPRPFMRPRP	0.0496
RRIRARPPRLPRPRPRPEIVPRP	0.553
RRIRFRPPRLPRPRPRPNTPPRP	-0.263
RRIRDRPPRLPRPRPRPNQNPRP	0.0279
RRIRERPPRLPRPRPRPGKRPRP	0.093
RRIRNRPPRLPRPRPRPAPFPRP	-0.299
RRIRRRPPRLPRPRPRPCTYPRP	-0.27
RRIRKRPPRLPRPRPRPNKEPRP	-0.0272
RRIRERPPRLPRPRPRPFKCPRP	-0.457
RRIRPRPPRLPRPRPRPKRRPRP	-0.093
RRIRERPPRLPRPRPRPDWSPRP	-0.0645
RRIRMRPPRLPRPRPRPDKFPRP	0.194
RRIRRRPPRLPRPRPRPQEAPRP	0.0364
RRIRERPPRLPRPRPRPFQDPRP	0.0039
RRIRRRPPRLPRPRPRPSLIPRP	-0.118
RRIRWRPPRLPRPRPRPWPCPRP	0.0272
RRIRVRPPRLPRPRPRPNSYPRP	-0.309

Sequence	shrunken log2 fold change
RRIRYRPPRLPRPRPRPVVSPRP	-0.595
RRIRFRPPRLPRPRPRPQWNPRP	-0.345
RRIRSRPPRLPRPRPRPICCPRP	-0.0929
RRIRPRPPRLPRPRPRPCLRPRP	-0.183
RRIRSRPPRLPRPRPRPTYRPRP	-0.195
RRIRWRPPRLPRPRPRPHVHPRP	-0.126
RRIRMRPPRLPRPRPRPWSPPRP	-0.508
RRIRIRPPRLPRPRPRPFMWPRP	-0.792
RRIRQRPPRLPRPRPRPIMYPRP	-0.0857
RRIRHRPPRLPRPRPRPTPNPRP	-0.00791
RRIRIRPPRLPRPRPRPMQEPRP	-0.2
RRIRRRPPRLPRPRPRPHTSPRP	-0.0729
RRIRFRPPRLPRPRPRPLCWPRP	0.135
RRIRWRPPRLPRPRPRPHINPRP	-0.491
RRIRHRPPRLPRPRPRPCEAPRP	-0.136
RRIRVRPPRLPRPRPRPPDYPRP	-0.114
RRIRCRPPRLPRPRPRPRKHPRP	0.0674
RRIRTRPPRLPRPRPRPCAGPRP	-0.0463
RRIRSRPPRLPRPRPRPFVSPRP	-0.481
RRIRVRPPRLPRPRPRPIEVPRP	-0.141
RRIRLRPPRLPRPRPRPDFEPRP	-0.0246
RRIRFRPPRLPRPRPRPYITPRP	-0.906
RRIRWRPPRLPRPRPRPSERPRP	0.415
RRIRYRPPRLPRPRPRPCQLPRP	-0.00957
RRIRQRPPRLPRPRPRPINVPRP	-0.0732
